Data taken from US20050276799A1 (PDL BIOPHARMA, published 2005).
Changes are numbered by the printed parent chain. Numbers in names are those of the source. Like-named read-outs stand apart in the source and are kept apart here.

Assays:
[1] = target: T1, recombinant, GPI-linked human FcRn on cell line NS0 HuFcRn (memb), clone 7-3 (human, UniProt P55899 24-297; P61769 21-119); experiment: IC50 of wild-type / IC50 of this antibody, same assay
T1 construct: Expressed from pDL208 on the surface of NS0 cells; also called human neonatal Fc receptor; not shown: human c-myc decapeptide flanked by linker peptides, then GPI linkage signal of human decay accelerating factor (vector p)

[2] = target: T2, recombinant, GPI-linked rhesus FcRn on cell line NS0 RhFcRn, clone R-3 (rhesus, UniProt H9Z6D2 24-297; Q6V7J5 21-119, GPI-linked); experiment: as above
T2 construct: Expressed from pDL410 on the surface of NS0 cells; not shown: human c-myc decapeptide flanked by linker peptides, then GPI linkage signal of human decay accelerating factor (vector p)

[3] = target: T1, recombinant, GPI-linked human FcRn on …; experiment: as above; remark: listed apart in the source
[4] = target: T1, recombinant, GPI-linked human FcRn on …; experiment: as above; remark: listed apart in the source
[5] = target: T1, recombinant, GPI-linked human FcRn on …; experiment: as above; remark: listed apart in the source
[6] = target: T2, recombinant, GPI-linked rhesus FcRn on …; experiment: as above; remark: listed apart in the source
[7] = target: T1, recombinant, GPI-linked human FcRn on …; experiment: competition FACS vs biotinylated OST577-IgG2M3 on NS0 cells expressing human FcRn, FBB pH 6.0
[8] = target: T1, recombinant, GPI-linked human FcRn on …; experiment: competition FACS vs biotinylated HuEP5C7-IgG2M3 on NS0 cells expressing human FcRn, FSB pH 6.0
[9] = target: T1, recombinant, GPI-linked human FcRn on …; experiment: competition FACS vs biotinylated HuEP5C7-IgG2M3 on NS0 cells expressing human FcRn, FBB pH 6.0
[10] = target: T1, recombinant, GPI-linked human FcRn on …; experiment: IC50 of wild-type / IC50 of this antibody, same assay; remark: listed apart in the source
[11] = target: T1, recombinant, GPI-linked human FcRn on …; experiment: as above; remark: listed apart in the source
[12] = target: T2, recombinant, GPI-linked rhesus FcRn on …; experiment: as above; remark: listed apart in the source
[13] = target: T1, recombinant, GPI-linked human FcRn on …; experiment: competition FACS vs biotinylated OST577-IgG1 on NS0 cells expressing human FcRn, FBB pH 6.0
[14] = target: T1, recombinant, GPI-linked human FcRn on …; experiment: as above; remark: listed apart in the source
[15] = target: T2, recombinant, GPI-linked rhesus FcRn on …; experiment: competition FACS vs biotinylated OST577-IgG1 on NS0 cells expressing rhesus FcRn, FBB pH 6.0
[16] = target: T1, recombinant, GPI-linked human FcRn on …; experiment: IC50 of wild-type / IC50 of this antibody, same assay; remark: listed apart in the source
[17] = target: T1, recombinant, GPI-linked human FcRn on …; experiment: competition FACS vs biotinylated human IgG on NS0 cells expressing human FcRn, FBB pH 6.0
[18] = target: T1, recombinant, GPI-linked human FcRn on …; experiment: IC50 of wild-type / IC50 of this antibody, same assay; remark: listed apart in the source
[19] = target: T1, recombinant, GPI-linked human FcRn on …; experiment: competition FACS vs biotinylated human IgG on NS0 cells expressing human FcRn, FBB pH 6.0; remark: listed apart in the source

B1: Hu1D10-IgG4 wild-type (antibody)
heavy: not shown
light: DIQMTQSPSSLSASVGDRVTITCRASENIYSYLAWYQQKPGKAPKLLVSNAKTLAEGVPSRFSGSGSGKQFTLTISSLQPEDFATYYCQHHYGNSYPFGQGTKLEIKRTVAAPSVFIFPPSDEQLKSGTASVVCLLNNFYPREAKVQWKVDNALQSGNSQESVTEQDSKDSTYSLSSTLTLSKADYEKHKVYACEVTHQGLSSPVTKSFNRGEC
Relative Binding [1]: 1 ratio
Relative Binding [2]: 1 ratio

B2: OST577-IgG2M3 wild-type (antibody)
heavy: QVQLVESGGGVVQPGRSLRLSCAASGFTFSRYGMHWVRQAPGKGLEWVAVISYDGSNKWYADSVKGRFTISRDNSKNTLFLQMHSLRAADTGVYFCAKDQLYFGSQSPGHYWGQGTLVTVSSASTKGPSVFPLAPCSRSTSESTAALGCLVKDYFPEPVTVSWNSGALTSGVHTFPAVLQSSGLYSLSSVVTVPSSNFGTQTYTCNVDHKPSNTKVDKTVERKCCVECPPCPAPPAAAPSVFLFPPKPKDTLMISRTPEVTCVVVDVSHEDPEVQFNWYVDGVEVHNAKTKPREEQFNSTFRVVSVLTVVHQDWLNGKEYKCKVSNKGLPAPIEKTISKTKGQPREPQVYTLPPSREEMTKNQVSLTCLVKGFYPSDIAVEWESNGQPENNYKTTPPMLDSDGSFFLYSKLTVDKSRWQQGNVFSCSVMHEALHNHYTQKSLSLSPSK
light: SYVLTQPPSVSVAPGQTARITCGGDNIGSKSVNWFQQKPGQAPVLVVYDDNERPSGISERFSGSNSGNTATLTISRVEAGDEADYYCQVWDSSSDHVVFGGGTKLTVLGQPKAAPSVTLFPPSSEELQANKATLVCLISDFYPGAVTVAWKADSSPVKAGVETTTPSKQSNNKYAASSYLSLTPEQWKSHRSYSCQVTHEGSTVEKTVAPTECS
notes: Human anti-HBV antibody, IgG2M3 (V234A, G237A) heavy, lambda-2 light
Relative Binding [3]: 1 ratio
Relative Binding [4]: 1 ratio
Relative Binding [5]: 1 ratio
Relative Binding [6]: 1 ratio
IC50 [7]: 11.9 µg/mL
IC50 [8]: 10.7 µg/mL
IC50 [9]: 9.4 µg/mL

B3: OST577-IgG1 wild-type (antibody)
heavy: not shown
light: B2 light
notes: Human anti-HBV antibody, IgG1 heavy, lambda-2 light
Relative Binding [10]: 1 ratio
Relative Binding [11]: 1 ratio
Relative Binding [12]: 1 ratio
IC50 [13]: 13.9 µg/mL
IC50 [14]: 10.3 µg/mL
IC50 [15]: 8.86 µg/mL

B4: OST577-IgG1 T250Q (antibody)
heavy: not shown
light: B2 light
Relative Binding [11]: 3.3 ratio
Relative Binding [12]: 3 ratio
IC50 [14]: 3.14 µg/mL
IC50 [15]: 2.97 µg/mL

B5: OST577-IgG1 T250Q/M428L (antibody)
heavy: not shown
light: B2 light
Relative Binding [11]: 29 ratio
Relative Binding [12]: 37 ratio
IC50 [14]: 0.351 µg/mL
IC50 [15]: 0.236 µg/mL

B6: OST577-IgG2M3 M428F (antibody)
heavy: B2 heavy with M429F
light: B2 light
Relative Binding [3]: 3.1 ratio
Relative Binding [4]: 3.2 ratio
IC50 [8]: 3.4 µg/mL
IC50 [9]: 2.97 µg/mL

B7: OST577-IgG2M3 T250E/M428F (antibody)
heavy: B2 heavy with T251E, M429F
light: B2 light
Relative Binding [4]: 15 ratio
IC50 [9]: 0.639 µg/mL

B8: OST577-IgG1 M428L (antibody)
heavy: not shown
light: B2 light
Relative Binding [11]: 11 ratio
Relative Binding [12]: 14 ratio
IC50 [14]: 0.896 µg/mL
IC50 [15]: 0.629 µg/mL

B9: Dac-IgG1 wild-type (daclizumab) (antibody)
heavy: not shown
light: DIQMTQSPSTLSASVGDRVTITCSASSSISYMHWYQQKPGKAPKLLIYTTSNLASGVPARFSGSGSGTEFTLTISSLQPDDFATYYCHQRSTYPLTFGQGTKVEVKRTVAAPSVFIFPPSDEQLKSGTASVVCLLNNFYPREAKVQWKVDNALQSGNSQESVTEQDSKDSTYSLSSTLTLSKADYEKHKVYACEVTHQGLSSPVTKSFNRGEC
notes: Humanized anti-CD25; also called Dac-IgG1 WT
Relative Binding [16]: 1 ratio
IC50 [17]: 20.4 µg/mL

B10: Dac-IgG2M3 wild-type (antibody)
heavy: QVQLVQSGAEVKKPGSSVKVSCKASGYTFTSYRMHWVRQAPGQGLEWIGYINPSTGYTEYNQKFKDKATITADESTNTAYMELSSLRSEDTAVYYCARGGGVFDYWGQGTLVTVSSASTKGPSVFPLAPCSRSTSESTAALGCLVKDYFPEPVTVSWNSGALTSGVHTFPAVLQSSGLYSLSSVVTVPSSNFGTQTYTCNVDHKPSNTKVDKTVERKCCVECPPCPAPPAAAPSVFLFPPKPKDTLMISRTPEVTCVVVDVSHEDPEVQFNWYVDGVEVHNAKTKPREEQFNSTFRVVSVLTVVHQDWLNGKEYKCKVSNKGLPAPIEKTISKTKGQPREPQVYTLPPSREEMTKNQVSLTCLVKGFYPSDIAVEWESNGQPENNYKTTPPMLDSDGSFFLYSKLTVDKSRWQQGNVFSCSVMHEALHNHYTQKSLSLSPGK
light: B9 light
notes: also called Dac-IgG2M3 WT
Relative Binding [18]: 1 ratio
IC50 [19]: 71.4 µg/mL

B11: Dac-IgG2M3 T250Q/M428L (antibody)
heavy: B10 heavy with T245Q, M423L
light: B9 light
Relative Binding [18]: 18 ratio
IC50 [19]: 4.02 µg/mL

B12: Dac-IgG1 T250Q/M428L (antibody)
heavy: not shown
light: B9 light
notes: also called T250Q/M428L daclizumab
Relative Binding [16]: 33 ratio
IC50 [17]: 0.626 µg/mL
